We go through one protein from publication PMC7327485 (The EMBO Journal, 2020).

The series deals with the molecule itself. Description: absorbance at 350 nm.

B1: farnesylated hGBP1 R584‐586A (hGBP1F ^R584‐586A) (natural protein)
chain: MASEIHMTGPMCLIENTNGRLMANPEALKILSAITQPMVVVAIVGLYRTGKSYLMNKLAGKKKGFSLGSTVQSHTKGIWMWCVPHPKKPGHILVLLDTEGLGDVEKGDNQNDSWIFALAVLLSSTFVYNSIGTINQQAMDQLYYVTELTHRIRSKSSPDENENEVEDSADFVSFFPDFVWTLRDFSLDLEADGQPLTPDEYLTYSLKLKKGTSQKDETFNLPRLCIRKFFPKKKCFVFDRPVHRRKLAQLEKLQDEELDPEFVQQVADFCSYIFSNSKTKTLSGGIQVNGPRLESLVLTYVNAISSGDLPCMENAVLALAQIENSAAVQKAIAHYEQQMGQKVQLPTETLQELLDLHRDSEREAIEVFIRSSFKDVDHLFQKELAAQLEKKRDDFCKQNQEASSDRCSALLQVIFSPLEEEVKAGIYSKPGGYRLFVQKLQDLKKKYYEEPRKGIQAEEILQTYLKSKESMTDAILQTDQTLTEKEKEIEVERVKAESAQASAKMLQEMQRKNEQMMEQKERSYQEHLKQLTEKMENDRVQLLKEQERTLALKLQEQEQLLKEGFQKESRIMKNEIQDLQTKMAAAKACTIS
modifications: C-terminal farnesyl moiety (added in vitro with farnesyltransferase and farnesyl pyrophosphate)
B1: the binding result is given as “binds”.
